Data reported in US11505811B2, “Method for the preparation of 2,4-dihydroxybutyrate” (ADISSEO FRANCE S.A.S., priority 2012, dated 2022).

What was measured:
CC(=O)C(=O)O = test: OHB/pyruvate reductase assay, Oc-LdhA; format: biochemical, Oryctalagus cuniculus; conditions: other: pH 7, 37° C., 0.25 mM NADH
Description: (§1) The genes coding for (L)-malate dehydrogenase in Escherichia coli, Ec-mdh (SEQ ID NO: 1), (D)-lactate dehydrogenase in E. coli, Ec-ldhA (SEQ ID NO: 3), (L)-lactate dehydrogenase of Lactococcus lactis, Ll-ldhA (SEQ ID NO: 5), (L)-lactate dehydrogenase of Bacillus subtilis, Bs-ldh (SEQ ID NO: 7), (L)-lactate dehydrogenase of Geobacillus stearothermophilus, Gs-ldh (SEQ ID NO: 9), the two isoforms of the (L)-lactate dehydrogenase of Oryctalagus cuniculus, Oc-ldhA (SEQ ID NO: 11 and SEQ ID NO: 13), were amplified by PCR using the high-fidelity polymerase Phusion™ (Fermentas) and the primers listed in Table 1. Genomic DNAs of E. coli MG1655, L. lactis IL1403, and B. subtilis strain 168 were used as the template. The genes Oc-ldhA, and Gs-ldh were codon-optimized for expression in E. coli and synthesized by MWG Eurofins. The primers introduced restriction sites (Table 1) upstream of the start codon and downstream of the stop codon, respectively, facilitating the ligation of the digested PCR products into the corresponding sites of the pET28a+ (Novagen) expression vector using T4 DNA ligase (Fermentas). Ligation products were transformed into E. coli DH5a cells (NEB). […]

O=C(O)C(=O)CCO = test: OHB/pyruvate reductase assay, Oc-LdhA; format: biochemical, Oryctalagus cuniculus; conditions: other: pH 7, 37° C., 0.25 mM NADH
Description: as §1

What does the source list for “Oryctolagus cuniculus (printed: Oryctalagus cuniculus) (L)-lactate dehydrogenase Oc-LdhA, SEQ ID NO: 12 and SEQ ID NO: 14 (two isoforms) (Oryctolagus cuniculus)”?
Km (CC(=O)C(=O)O): 1.5 mM; Km (O=C(O)C(=O)CCO): 13 mM
